The text below walks through data of patent publication US20230124973.

For data set [1], the system named is hTERT (191-306), purified.
The target in data set [2] is T1, hTERT (191-306), purified.
T1 chain: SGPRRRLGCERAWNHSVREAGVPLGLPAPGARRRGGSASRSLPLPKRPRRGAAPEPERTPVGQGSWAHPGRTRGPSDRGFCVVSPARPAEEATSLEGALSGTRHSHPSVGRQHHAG

In the case of CDK1-cyclin B (New England Biolabs), in data set [1], the “in vitro kinase assay; phosphorylation site found by mass spectrometry and by Western blotting with Anti-hTERT pT249” value is “pT249 was detected from only a sample treated with CDK1”.

B1: IKK2 (2-664) (protein)
chain: SWSPSLTTQTCGAWEMKERLGTGGFGNVIRWHNQETGEQIAIKQCRQELSPRNRERWCLEIQIMRRLTHPNVVAARDVPEGMQNLAPNDLPLLAMEYCQGGDLRKYLNQFENCCGLREGAILTLLSDIASALRYLHENRIIHRDLKPENIVLQQGEQRLIHKIIDLGYAKELDQGSLCTSFVGTLQYLAPELLEQQKYTVTVDYWSFGTLAFECITGFRPFLPNWQPVQWHSKVRQKSEVDIVVSEDLNGTVKFSSSLPYPNNLNSVLAERLEKWLQLMLMWHPRQRGTDPTYGPNGCFKALDDILNLKLVHILNMVTGTIHTYPVTEDESLQSLKARIQQDTGIPEEDQELLQEAGLALIPDKPATQCISDGKLNEGHTLDMDLVFLFDNSKITYETQISPRPQPESVSCILQEPKRNLAFFQLRKVWGQVWHSIQTLKEDCNRLQQGQRAAMMNLLRNNSCLSKMKNSMASMSQQLKAKLDFFKTSIQIDLEKYSEQTEFGITSDKLLLAWREMEQAVELCGRENEVKLLVERMMALQTDIVDLQRSPMGRKQGGTLDDLEEQARELYRRLREKPRDQRTEGDSQEMVRLLLQAIQSFEKKVRVIYTQLSKTVVCKQKALELLPKVEEVVSLMNEDEKTVVRLQEKRQKELWNLLKIACSK
Regarding B1, in data set [2], the “in vitro kinase assay (negative control); phosphorylation sites found by mass spectrometry” value is “pS206, pS274, pT283 and the like were detected from a sample treated with IKK2”.
